The values below come from the supplement of paper PMC9170038.

The test system of data set [1] is MS2 coat protein. As to the kind of experiment: apparent KD of MS2 coat protein, switch ON state; designed switch direction (-1 OFF switch, 1 ON switch): -1; higher = weaker reporter binding. The conditions noted are these: FMN input: 0 or 200 uM; Eterna round: R93 (includes R88 designs). An outline of the steps: (§1)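 SNAP-549-labelled MS2 coat protein was titrated onto designed RNA switches that had been transcribed on-chip from Illumina sequencing clusters. Amounts doubled from 0.7 or 1.5 nM to 3 µM in 100 mM Tris-HCl pH 7.5, 80 mM KCl, 4 mM MgCl2, with constant ligand or without. Apparent KD is the median per design of normalised cluster binding-curve fits.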

The test system of data set [2] is MS2 coat protein. As to the kind of experiment: apparent KD of MS2 coat protein, switch OFF state (with FMN for OFF switches, without FMN for ON switches); designed switch direction (-1 OFF switch, 1 ON switch): -1; higher = weaker reporter binding. The conditions noted are these: FMN input: 0 or 200 uM; Eterna round: R93 (includes R88 designs). The procedure, abridged: as §1

Data set [3] deals with MS2 coat protein. As to the kind of experiment: apparent KD of MS2 coat protein; designed switch direction (-1 OFF switch, 1 ON switch): 1; higher = weaker reporter binding. The procedure, abridged:
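Designed RNA switches with common flanks were transcribed on Illumina chips by stalled E. coli RNA polymerase and titrated with SNAP-549-labelled MS2 coat protein, from 0.7 or 1.5 nM doubling to 3 µM, in Tris-HCl pH 7.5 buffer with KCl, MgCl2, BSA, DTT, tRNA and Tween-20. Steps lasted 0.8–1.5 h (lowest) to 10–20 min (highest). Titrations ran without input, with 200 uM small-molecule ligand, or with an oligonucleotide input. Normalised cluster fluorescence was curve-fitted, and apparent KD is the per-design median over clusters.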

Where [4] appears, read: input ligand: microRNA oligo, concentration not stated.
Where [5] appears, read: Eterna round: R95, input ligand: FMN 200 uM.
[6] abbreviates: Eterna round: R95, input ligand: microRNA oligo, concentration not stated.
Setting [7] is: Eterna round: R95, input ligand: none.

Regarding “GUCCUACAUGAGGAUCACCCAUGUCAGGAUAUGUAGCGUCCGAGCGAAAAGGCCCGGAGCAGAAGGGACAGGUG [Maisbia]”, the “apparent KD of MS2 coat protein” value in the data set on MS2 coat protein [1] came out at 16.1 nM; with MS2 coat protein [2], 20.1 nM.
The like results for “AGCUAGUCAGGAUAUGCAUGAAAAAAAAAAAAAAAAAAAAAACAUGAGGAUCACCCAUGUAGAAGGGACUAGCA [Starry Exclusion 2 (jandersonlee round 1 mod)]” were, in that order, 126 nM and 212 nM.
The like results for “AAAAAACAUGAGGAUCACCCAUGUAAGGAUAUGCGAAAUAAAAGAAAUAAAAAGGAAAGCAGAAGGUACAUGAA [JL wbt mod 8]” were, in that order, 27.2 nM and 84.4 nM.
Taken in the same sequence, the figures for “AAGACUAGAGGAUAUACAUGAGGAUCACCCAUGUAACUGUCAGGAGACUGACGGAGAAGUAGAAGGCUAGUCAA [Mat - Exclusion 3 - JL mod - D84]” were 15.8 nM and 19.4 nM.
For the sequence “AGAAAGGCAGGAUAUACAUGAGGAUCACCCAUGUUAAGAGUGACGGAAACGUCACGAAGUAGAAGGGCCAAGAA [The song I sing]”, the “apparent KD of MS2 coat protein” value with MS2 coat protein [1] is 20.4 nM; in the data set on MS2 coat protein [2], 17.3 nM.
With “GGUUGGCGAGGAUAUACAUGAGGAUCACCCAUGUGAGAGAAAAAAGUGAGGAGGGAAAGUAGAAGGCGCUGACG [salish99-ex3-16]”, the “apparent KD of MS2 coat protein” value amounted to 27.3 nM in the data set with MS2 coat protein [1] and 41.9 nM in the data set on MS2 coat protein [2].
“AAAAAACAUGAGGAUCACCCAUGUCAGGAUAUCGUGCAGAAAAAAAAAAAAAACUGCACGAGAAGGGACAUGAA [Mod of jnicol]”: the “apparent KD of MS2 coat protein” value was determined as 42 nM in the data set with MS2 coat protein [1] and 94.9 nM in the data set on MS2 coat protein [2].
For “AACAGUACAGGAUAUACAUGAGGAUCACCCAUGUGAAAAUUAAGUGGAAAACCACAGUGUAGAAGGGUACUGGA [Mat - Exclusion 3 - Eli mod - D53]”, the figures for the “apparent KD of MS2 coat protein” value with MS2 coat protein [1] and in the data set on MS2 coat protein [2] were 47.5 nM and 191 nM, respectively.
The like results for “AACAUGUAAGGAUAUGCUGCUCGUCACGAAAGUGAUGAGUAGCAGAAGGUACAUGAGGAUCACCCAUGUAAAGA” were, in that order, 49 nM and 156 nM.
Turning to “GGAAAGUGAGGAUAUGCAUAACAAAUACAAAGAGAAACAAAGCAGAAGGCACAUGAGGAUCACCCAUGUAAACA [Exclusion 4 Float]”, the “apparent KD of MS2 coat protein” value amounted to 27.3 nM in the data set with MS2 coat protein [1] and 22.7 nM in the data set on MS2 coat protein [2].
Taken in the same sequence, the figures for “CAAAGGUGAGGAUAUACAGGAAUAUGACGAAAGUCAUAAAAACAUGAGGAUCACCCAUGUAGAAGGCACCACAA [E2 64% 3]” were 37.4 nM and 57.3 nM.
On to “CUCUAGUAAGGAUAUGGAAGAAAAGAAAAGAAAGAAAAGAACCAGAAGGUACAUGAGGAUCACCCAUGUAAGAA [EteRNA is fun!]”, for which the results for the “apparent KD of MS2 coat protein” value in the data set with MS2 coat protein [1] and in the data set with MS2 coat protein [2] were 48.9 nM and 23.4 nM, respectively.
Taken in the same sequence, the figures for “AAAAGCUAAGGAUAUACAUGAGGAUCACCCAUGUAGAACAGUGUAUGGGUAAAGGCGCGUAGAAGGUAGAAAAG [Arbileat]” were 29.9 nM and 42.1 nM.
For “AGCAGGUGAGGAUAUCGAUUAAGAUUAACAUUAUUAUUAAACGAGAAGGCACAUGAGGAUCACCCAUGUAAGGA [Exclusion 4Col]”, the “apparent KD of MS2 coat protein” value in the data set on MS2 coat protein [1] was determined as 43.4 nM; in the data set with MS2 coat protein [2] it was 51.8 nM.
Taken in the same sequence, the figures for “UCACACCUAGGAUAUACAUGAGGAUCACCCAUGUGGCACUCCGCAGGCAUUGCUCCCAGUAGAAGGAGGACACG [Veterexe]” were 18.9 nM and 23.8 nM.
Take “AAAAAUCGAGGAUAUACAUGAGGAUCACCCAUGUGGGAACACGAUUACACAAAAGAAAGUAGAAGGCGAUAAAA [Ex 3 May 22]”: the “apparent KD of MS2 coat protein” value with MS2 coat protein [1] amounted to 28.2 nM; with MS2 coat protein [2], 162 nM.
For “GGUUGGCGAGGAUAUACAUGAGGAUCACCCAUGUGAGAGAAAAAAGUGAGAAAGAAAAGUAGAAGGCGCUGACU [salish99-ex3-04]”, the “apparent KD of MS2 coat protein” value in the data set on MS2 coat protein [1] was determined as 54.5 nM; in the data set on MS2 coat protein [2] it was 262 nM.
Take “UAAAGACAUGAGGAUCACCCAUGUGAGGAUAUCGGAGACAACAGAACAUCAAGUACAAUGAGAAGGCACAGAAA [JR_Exc001_Sub018]”: the “apparent KD of MS2 coat protein” value is 40.6 nM with MS2 coat protein [1] and 47.1 nM in the data set with MS2 coat protein [2].
The like results for “AAGGUACGAGGAUAUACAUAGAUACAGAUACAUGUAGACGUACAUGAGGAUCACCCAUGUAGAAGGCGUAUAUA [AJ 24]” were, in that order, 46.8 nM and 83 nM.
For “AAAAAAAGAGGAUAUACGUGAAAAAUAAAAAUGUAAAAACCACAUGAGGAUCACCCAUGUAGAAGGCUUAAAAA [Ecx-I 62% 2]”, the “apparent KD of MS2 coat protein” value in the data set with MS2 coat protein [1] was determined as 26.4 nM; with MS2 coat protein [2] it was 22.8 nM.
Take “AAUUCACAUGAGGAUCACCCAUGUAAGGAUAUCGAAAUAAAACUAAUCAAAAAACAAACGAGAAGGUACAAAAA [Exclusion 1 design 7]”: the “apparent KD of MS2 coat protein” value in the data set on MS2 coat protein [1] was 23.6 nM; with MS2 coat protein [2], 26.3 nM.
The like results for “AUAAAUCGAGGAUAUACAUGAGGAUCACCCAUGUAAAUAAAUAAAUAAAACUCCACAAGUAGAAGGCGAAAUAA [JR_Exc003_Sub020]” were, in that order, 23.8 nM and 20.8 nM.
Regarding “GGUCGGACUCAACAUGAGGAUCACCCAUGUGCGGAAACGCCAUAGGAUAUCUGUCCGAAAAGGUCAGAGAAGGGUGAACCGACC [Fiskers NG3ss - 66] (Eterna round: R96, puzzle: Same State NG 3)”, the “apparent KD of MS2 coat protein” value in the data set on MS2 coat protein [3] (input ligand: FMN 200 uM) came to 435 nM; in the data set on MS2 coat protein [3] (setting [4]), 263 nM; in the data set on MS2 coat protein [3] (input ligand: none) it was 471 nM.
As to “GAGGGACAGACCAACAUGAGGAUCACCCAUGUCCUCGCAGGUCAGGAUAUUAUGAGGAUCACCCGUGAGAAGGGACGGUGAACC (Eterna round: R96, puzzle: Same State NG 3)”, the “apparent KD of MS2 coat protein” value in the data set on MS2 coat protein [3] (input ligand: FMN 200 uM) came out at 606 nM; with MS2 coat protein [3] (setting [4]), 468 nM; in the data set on MS2 coat protein [3] (input ligand: none), 488 nM.
As for “AUAUAUAUAAGGAAGGAUAUCUUAGAAAAAACAUGAGGAUCACCCAUGUAAAUAAAGAAUAAAUGGGAGAAGGUCCAUAUAUAUA [77%, More Tesla, 10] (Eterna round: R96, puzzle: Same State 2)”, the “apparent KD of MS2 coat protein” value with MS2 coat protein [3] (setting [4]) is 22 nM.
Regarding “AUUUAACAAGCUUUUUGCUCGUCUUAUAAACAUGAGGAUCACCCAUGUAAUAGCGUGAGAGUAAUUUUUUAAAUAAU [JMF 96] (puzzle: Sensor for hsa-mir-208a)”, the “apparent KD of MS2 coat protein” value was 20.3 nM in the data set on MS2 coat protein [3] (setting [5]), 34.3 nM with MS2 coat protein [3] (setting [6]) and 17 nM in the data set with MS2 coat protein [3] (setting [7]).
The like results for “GGCAGGUGCAGGCUUGCUUGCACCUGGAAACAUGAGGAUCACCCAUGUUUGGGACAAGCUUUGCUCUUCGUCUUUUC [JL ViennaUCT Isusreraar mod 5] (puzzle: Sensor for hsa-mir-208a)” were, in that order, 43.7 nM, 55.1 nM and 54.2 nM.
“AGUAUUAAUGCAGGAUAUGAUUAACAUGAGGAUCACCCAUGUGGUGUUGUGAGUAAGGAGAGUGAUCAGAAGGGCAUUUUUUUU [JMF's solution 38] (Eterna round: R96, puzzle: Same State NG 2)”: the “apparent KD of MS2 coat protein” value came out at 414 nM in the data set with MS2 coat protein [3] (input ligand: FMN 200 uM), 175 nM in the data set on MS2 coat protein [3] (setting [4]) and 502 nM in the data set on MS2 coat protein [3] (input ligand: none).
